Series [1] deals with the molecule itself. Nature of the series: SEC-MALS; Superdex 200 10/300 GL, 100 μL samples, 50 mM Hepes pH 7.0, 25 mM NaCl, 0.5 TCEP, 1 mL/min; monomer to dimer. Background: Size exclusion chromatography separates by hydrodynamic size, large species first.
The target in series [2] is T1, human calmodulin (human, UniProt P0DP23 1-149).
T1 construct: calmodulin, human; gene a gift from Susan Shao, cloned in pET15b without tag; source: cloned in pET15b without tag, purified following established protocols
Nature of the series: crystal structure; cocrystallised: 1078 µM calmodulin, 2800 µM peptide, 30 mM Tris/HCl pH 7.4, 2.5 mM CaCl2, 20 °C, sitting drop; 2.2 Å. The following applies: both partners purified.

We go through two molecules from publication PMC7317449, “On the mechanism of calcium‐dependent activation of NADPH oxidase 5 (NOX5)” (The Febs Journal, 2019).

B1: EF-domain of hNOX5 (residues 1–161, isoform β) (domain or fragment, human)
chain: MSAEEDARWLRWVTQQFKTIAGEDGEISLQEFKAALHVKESFFAERFFALFDSDRSGTITLQELQEALTLLIHGSPMDKLKFLFQVYDIDGSGSIDPDELRTVLQSCLRESAISLPDEKLDQLTLALFESADADGNGAITFEELRDELQRFPGVMENLTISAAA
notes: NADPH oxidase 5 (NOX5), human, isoform β (v2), EF-domain, residues 1-161; stretch of three alanines from the Not I restriction site, added at the C terminus for cloning reasons (told in words); also called human EF-domain; hEF domain; source: E. coli BL21, purified (Strep column, TEV cleavage, Strep and Nickel columns, Superdex 75); not shown: Strep-tag, N-terminal, cleaved
Turning to B1, in series [1], the “stoichiometry N” value was found to be 2.

B2: peptide 673–691 of human DH-domain (putative calmodulin-binding region of hNOX5) (peptide)
peptide: Ac-DWSKVFQKVAAEKKGKVQV-NH2
notes: methods: peptide 673-691; The limits are told in two ways (673-691 and 674-685); Val691 is named as a contact, which fits 673-691; also called DH peptide; hNOX5 peptide; source: synthetic peptide (Chinepeptide Co, Shanghai)
For the molecule B2, the binding result in series [2] was “binds”.

As a reminder, the stoichiometry N is a count of units in the complex or per binding partner.
